Laboratory results from publication PMC12065857 (Nature Communications, 2025).
No end group written: not given here.

Target: T1, paLptD, LptD from Pseudomonas aeruginosa (as the chain in paLptDEHis) (Pseudomonas aeruginosa, UniProt Q9I5U2 34-924)
T1 sequence: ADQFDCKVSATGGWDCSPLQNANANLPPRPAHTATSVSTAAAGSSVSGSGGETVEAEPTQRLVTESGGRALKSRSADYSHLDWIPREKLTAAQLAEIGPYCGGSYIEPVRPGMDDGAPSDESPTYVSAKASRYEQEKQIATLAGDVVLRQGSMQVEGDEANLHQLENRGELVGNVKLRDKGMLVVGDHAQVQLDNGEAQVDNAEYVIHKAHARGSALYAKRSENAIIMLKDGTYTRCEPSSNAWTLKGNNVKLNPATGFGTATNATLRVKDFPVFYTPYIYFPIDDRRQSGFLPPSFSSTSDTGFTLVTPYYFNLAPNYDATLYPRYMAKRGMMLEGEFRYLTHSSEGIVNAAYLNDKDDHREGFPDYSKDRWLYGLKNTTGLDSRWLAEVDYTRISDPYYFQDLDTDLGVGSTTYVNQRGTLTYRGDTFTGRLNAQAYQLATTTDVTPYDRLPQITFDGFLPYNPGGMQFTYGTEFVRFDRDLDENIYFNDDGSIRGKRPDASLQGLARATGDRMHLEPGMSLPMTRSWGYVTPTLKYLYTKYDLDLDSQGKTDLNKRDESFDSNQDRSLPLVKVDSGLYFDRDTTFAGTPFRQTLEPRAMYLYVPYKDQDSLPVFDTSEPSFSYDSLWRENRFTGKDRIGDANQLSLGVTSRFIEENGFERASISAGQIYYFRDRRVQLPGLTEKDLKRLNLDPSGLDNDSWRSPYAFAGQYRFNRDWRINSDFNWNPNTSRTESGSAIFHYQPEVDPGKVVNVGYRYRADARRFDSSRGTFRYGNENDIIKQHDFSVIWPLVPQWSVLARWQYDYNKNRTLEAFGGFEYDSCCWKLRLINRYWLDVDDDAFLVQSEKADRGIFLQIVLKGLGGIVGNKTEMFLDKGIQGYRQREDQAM
Experiment: crystal structure

CGLKGPLYFPPADKNAPPPTKPVETQTQSTVPDKNDRATGDGPSQVNY (natural protein, also: three acyl chains (R1, R2, R3) at the N-terminus) [LptM (formerly YifL), endogenous Escherichia coli lipoprotein]
binding result: binds
